{"source": "patent US6455049B1", "about": "“Biologically active and particularly peptide molecules having a potentiating effect on growth hormone biological activity” (priority 1996, dated 2002)", "molecules": {"B1": {"name": "bovine growth hormone (protein)", "chain": "AFPAMSLSGLFANAVLRAQHLHQLAADTFKEFERTYIPEGQRYSIQNTQVAFCFSETIPAPTGKNEAQQKSDLELLRISLLLIQSWLGPLQFLSRVFTNSLVFGTSDRVYEKLKDLEEGILALMRELEDGTPRAGQILKQTYDKFDTNMRSDDALLKNYGLLSCFRKDLHKTETYLRVMKCRRFGEASCAF"}}, "system": "IGF-1", "experiment": "Plasma IGF-1 level in hypophysectomised female Wistar rats (radioimmunoassay)", "type": "in vivo", "details": "dose of 100 μg/rat", "experimental": "In vivo experiments performed in the context of the present invention were carried out on 19 batches of hypophysectomised female rats of the Wistar strain, each batch comprising 5 rats. These animals were hypophysectomized when 4 weeks old and then kept under observation for one week. During an additional week of observation, the animals were weighed and those having gained more than 5 grams […] were discarded. In fact, it was assumed that the hypophysectomy of these animals was incomplete. They are thus not suitable for use in the framework of the present experiments.\nEach animal selected receives a T4 thyroid hormone and cortisone replacement treatment. These hormones are administered subcutaneously each day at 50 μg/100 g body weight in the case of cortisone and 1 μg/100 g body weight in the case of T4. Usually a slight weight gain is observed following the injection of these hormones. This hormone supplementation treatment is administered for one week during which the animals continue to be weighed daily. These animals are from then on suitable for use in a comparative evaluation of the somatogenic activity of bGH incubated with or without different peptide constructions having the sequence 104-113 or the sequence 35-53 in the case of the GH peptide described in EP 284406. […]", "data": [{"molecule": "B1", "values": [{"measurement": "IGF level relative to baseline levels in control hypophysectomized animals", "result": "eight times higher than the baseline levels"}, {"measurement": "mean IGF levels", "setting": "hypophysectomized rats", "result": 60, "unit": "ng/mL"}]}]}
